We go through three molecules from patent US8329429B2, “Method of enhancing recombinant protein production” (Induce Biologics Inc., priority 2007, dated 2012).

One data set concerns CHO-hBMP-7 cells. The experiment in a line: ELISA for hBMP-7 in conditioned medium from CHO-hBMP-7 cells incubated with 9DR. The following applies: 24 hours, nutrient control. In kind it is cell-based, Chinese hamster. Here is the method:
Cell lines expressing the hBMP-7 transgene were prepared as per the methods described in Example 1.
Stable CHO cell lines expressing wild type BMP-7 cDNA were seeded into single wells of 24 well plates and cultured in the presence of increasing concentrations of the furin inhibitor 9DR. The conditioned medium was collected and aliquots were assayed for the presence of […] by ELISA. The amount of proBMP-7 present in the samples was estimated by western blot. Other aliquots of conditioned media were diluted with fresh medium and added to C2C12 cells to test for in vitro osteoinductive biological activity.

The subject of the next data set is CHO-BMP-2 cells. It counts as cell-based, Chinese hamster. Here is the method:
Cell viability was assessed at each media collection using a ViCell cell viability analyzer (Beckman) following manufacturer's instructions.

A further data set deals with C2C12 cells. Description: C2C12 alkaline phosphatase assay of rhBMP after PreScission digestion. It counts as cell-based. The following applies: for ALP activity (U/μg protein) mean ± SD: n=4. The text has this:
Alkaline phosphatase induction in C2C12 cells: The activity of recombinant hBMP-2 protein is quantitated based upon induction of alkaline phosphatase in in vitro cultured C2C12 cells, as has been described (see, e.g., Peel et al. J Craniofacial Surg. 2003; 14:284-291 and Hu et al. Growth Factors 2004; 22:29033).
C2C12 cells (ATCC accession number CRL-1772, Manassas, Va.) are passaged before confluent and resuspended at 0.5×10^5 cells/ml in MEM supplemented with 15% heat-inactivated fetal bovine serum, antibiotics and 50 μg/ml ascorbic acid. One ml of cell suspension is seeded per well of a 24 well tissue culture plate (BD Falcon, Fisher Scientific Cat #08-772-1). An aliquot of test BMP-2 sample is added and the cultures maintained at 37° C. and 5% CO2. Test BMP-2 samples included conditioned media, purified recombinant hBMP-2 isolated from conditioned media by heparin affinity chromatography, and as a positive control a commercially available purified recombinant hBMP-2 (R&D Systems, Minneapolis, USA). Control cultures (cultured in media without added BMP-2 sample) are cultured for 2 to 7 days. Medium is changed every two days.
At harvest cultures are rinsed with Tris buffered saline (20 mM Tris, 137 mM NaCl, pH 7.4) and M-Per lysis buffer (Pierce Biotechnology Inc., Rockford, Ill., catalogue #78501) is added. The cell layer is scraped into Eppendorf tubes and sonicated. The lysate is centrifuged at 5000×g at 5° C. for 10 minutes, and the supernatant assayed for alkaline phosphatase (ALP) by monitoring the hydrolysis of nitrophenol phosphate in alkaline buffer (Sigma-Aldrich, St. Louis Mo., catalog P5899) as described in Peel et al. J Craniofacial Surg. 2003; 14:284-291 or by using the Alkaline Phosphatase detection kit, Fluorescence (Sigma-Aldrich, catalogue #APF) according to manufacturer's instructions. To normalize the ALP activity the cellular protein content in each well is also assayed using the Coomasie (Bradford) Protein Assay (Pierce Biotechnology Inc., catalogue #23200). The normalized ALP activity for each sample is calculated by dividing the ALP activity per well by the protein content per well. An activity score is calculated by dividing the ALP activity for each sample by the mean ALP activity of the control and is compared to the score achieved by the positive BMP control.
Preparation of test materials: PreScission protease was obtained from Amersham Biosciences (GE Healthcare, Buckinghamshire, U.K) and was prepared according to the manufacturer's instructions. Recombinant hBMP-2 and rhBMP-7 (both CHO cell produced) were obtained from R&D Systems. The rhBMP samples were resuspended in 4 mM HCl to a final concentration of 10 μg/ml. Bovine serum albumin (BSA) was not included so that the only substrate for the protease was BMP. The cleavage buffer was prepared (50 mM Tris-HCl, 150 mM NaCl, 1 mM EDTA, pH 7).
Assessment of activity: Samples underwent digestion at room temperature for 6 hours. Reactions were stopped by freezing at −20° C. Digestion samples were diluted in alpha MEM+15% FBS and tested for BMP activity using the C2C12 assay described in Example 1.

Turning to `N=C(N)NCCC[C@@H](N)C(=O)O` [DR, D arginine], the “mature hBMP-7 in medium versus medium only” value with CHO-hBMP-7 cells is reported as “no difference”.
On to `N=C(N)NCCC[C@@H](N)C(=O)N[C@H](CCCNC(=N)N)C(=O)N[C@H](CCCNC(=N)N)C(=O)N[C@H](CCCNC(=N)N)C(=O)N[C@H](CCCNC(=N)N)C(=O)N[C@H](CCCNC(=N)N)C(=O)N[C@H](CCCNC(=N)N)C(=O)N[C@H](CCCNC(=N)N)C(=O)N[C@H](CCCNC(=N)N)C(N)=O` [9DR, nona-D-arginine amide], for which, in the data set on CHO-BMP-2 cells, the “effect on cell viability” value is listed as “did not affect cell viability”.

B1: rhBMP-7: recombinant human BMP-7, CHO cell produced, obtained from R&D Systems (protein)
chain: STGSKQRSQNRSKTPKNQEALRMANVAENSSSDQRQACKKHELYVSFRDLGWQDWIIAPEGYAAYYCEGECAFPLNSYMNATNHAIVQTLVHFINPETVPKPCCAPTQLNAISVLYFDDSSNVILKKYRNMVVRACGCH
Turning to B1, the “ALP activity (U/μg protein) mean ± SD” value in the data set on C2C12 cells (group 2: 20 μl rhBMP (10 μg/ml), no protease, no cleavage buffer (unincubated)) stood at 7.1 ± 0.5 U/μg protein; in the data set on C2C12 cells (group 3: 20 μl rhBMP + 15 μl PreScission protease + 165 μl cleavage buffer, room temperature 6 hours), 2.9 ± 0.2 U/μg protein; in the data set on C2C12 cells (group 4: 20 μl rhBMP + 180 μl cleavage buffer alone, room temperature 6 hours), 4.0 ± 0.3 U/μg protein. Also, the “activity after PreScission digestion” value in the data set on C2C12 cells (room temperature for 6 hours) is given as “remained active”. Also, in the data set with C2C12 cells (room temperature for 6 hours), the “activity after PreScission digestion compared to control BMP incubated in cleavage buffer alone” value is given as “No loss of activity”.
